One assay concerns the target T1, human Claudin 18.1 (human, UniProt P56856 1-261).
T1 construct: Overexpressed on HEK293A cells by lentivirus
Briefly: FACS on HEK293A cells expressing human Claudin 18.1 WT.

Assay [1] deals with T2, human Claudin 18.1 Mutant 16 (Claudin 18.1/S42A/Q45N/E47Q/Q56E) (human, UniProt P56856 1-261).
T2 chain: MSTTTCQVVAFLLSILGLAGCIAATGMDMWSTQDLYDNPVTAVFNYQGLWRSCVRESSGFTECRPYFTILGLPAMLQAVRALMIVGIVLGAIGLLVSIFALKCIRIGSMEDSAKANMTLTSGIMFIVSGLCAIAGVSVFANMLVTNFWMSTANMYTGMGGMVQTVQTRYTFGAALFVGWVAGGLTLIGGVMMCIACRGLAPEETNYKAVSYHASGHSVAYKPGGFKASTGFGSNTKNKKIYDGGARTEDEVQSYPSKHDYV
Description: FACS on HEK293A cells expressing mutant 16.

Assay [2] concerns the target human Claudin 18.1 Mutant 14 (Q56E) (human, UniProt P56856 1-261). Briefly: FACS on HEK293A cells expressing mutant 14.
Assay [3] deals with T3, human Claudin 18.1 Mutant 15 (Claudin 18.1/S42A/Q45N/Q56E) (human, UniProt P56856 1-261).
T3 chain: T2 chain with Q47E
Briefly: FACS on HEK293A cells expressing mutant 15.

Where a chain is given by its changes, count along the chain named.

B1: 18F2-30VH7VL3 (antibody, human IgG1, kappa, V domains shown)
VH: QVQLVQSGAEVKKPGASVKVSCKASGYTFTSFWLNWVKQRPGQGLEWIGNIYPSTSYTVYNQKFKDKVTLTVDKSTSTAYMELSSLRSEDTAVYYCTRTWRGNSFDYWGQGTTVTVSS
VL: DIVMTQSPSSLTVSLGEKATISCKSSQSLLNSGNQKNYVTWYQQKPGQPPKLLIYWGSTRSTGVPDRFSGSGSGTDFTLTISSLQAEDLAVYYCQNDYTYPFTFGSGTKLEIKR
notes: Humanized, human IgG1/kappa constant regions
Turning to B1, the binding result with human Claudin 18.1 is given as “no binding”; in assay [1], “binds”; in assay [2], “binds”; in assay [3], “binds”.

Source of the values: US10421817 (BEIJING MABWORKS BIOTECH, dated 2019).
